The target of assay [1] is CXCR4 mutant D171A (human) (UniProt P61073). Kind of assay: 12G5 antibody competition binding on cells.
In assay [2] the target is CXCR4 mutant F87A (human) (UniProt P61073). Kind of assay: 12G5 antibody competition binding on cells.
The target of assay [3] is CXCR4 mutant Y45A (human) (UniProt P61073). Kind of assay: 12G5 antibody competition binding on cells.
For assay [4], the target named is CXCR4 mutant E288D (human) (UniProt P61073). Kind of assay: 12G5 antibody competition binding on cells.
Assay [5] addresses chemokine receptor CXCR4, wild type (human) (UniProt P61073). Kind of assay: 12G5 antibody competition binding on cells.
Assay [6] concerns the target CXCR4 mutant Y121A (human) (UniProt P61073). Put plainly: 12G5 antibody competition binding on cells.
Assay [7] concerns the target CXCR4 mutant W252A (human) (UniProt P61073). Kind of assay: 12G5 antibody competition binding on cells.
In assay [8] the target is CXCR4 mutant F292A (human) (UniProt P61073). Kind of assay: 12G5 antibody competition binding on cells.
Assay [9] addresses CXCR4 mutant DNX4 (human) (UniProt P61073). Put plainly: 12G5 antibody competition binding on cells.
Assay [10] deals with CXCR4 mutant Y255A (human) (UniProt P61073). Kind of assay: 12G5 antibody competition binding on cells.
The target of assay [11] is CXCR4 (Homo sapiens, UniProt P61073). Put plainly: Intracellular calcium mobilization in Sup T1 cells. The class given is cell-based. Conditions: 50 nM, Sup T1 cells expressing CXCR4, fura-2; representative of at least three independent experiments.

Usually IC50 stands for the point on the concentration scale where inhibition reaches its midpoint. A high value points to weaker potency in that assay.

Consider DV1 dimer (peptide), for which the decrease of binding against wild-type CXCR4 was found to be 60% in [1]; 40% in [2]; 20% in assay [3]; 40% in [4]; 20% in [6]; 20% in assay [7]. Besides, the decrease of binding against wild-type CXCR4 in [8] and in assay [10] was 20% in each case. In assay [5], this substance displayed an IC50 of 3 nM. The increase of % bound 12G5 against wild-type CXCR4 in assay [9] was determined as 15%.

Take stromal cell-derived factor-1α [SDF-1α]: the “Mobilization of calcium (Ca2+)” value in assay [11] is “rapid Ca^2+ mobilization”.

Source of the values: PMC3476724 (Biochemistry, 2012).
